2 substances from publication PMC6269467 can be followed below.

For assay [1], the target named is αN-catenin actin-binding domain with the helix-1 mutation (αNcat-ABD-H1) (mouse) (UniProt Q61301). As to the kind of experiment: crystal structure; αNcat-ABD-H1 crystals in forms A (2.2 Å) and B (2.8 Å), grown at 277 K by vapor diffusion; molecular replacement with PDB 4K1O.
Assay [2] has as its target αE-catenin actin-binding domain, wild type (αEcat-ABD-WT) (mouse) (UniProt P26231). Briefly: SEC-MALS; elution profiles at 3 mg/ml to 30 mg/ml; MALS of the dimer peak at 30 mg/ml; dimer to monomers; Superdex-200 Increase 10/300 GL; 20 mM Tris-HCl pH 7.0, 100 mM NaCl.

In the case of “αN-catenin actin-binding domain with the helix-1 mutation (αNcat-ABD-H1) (from UniProt Q61301-2 651-905) (domain or fragment)”, the stoichiometry N in assay [1] is 2.
The substance “αE-catenin actin-binding domain, wild type (αEcat-ABD-WT) (from UniProt P26231 652-906) (domain or fragment)” gave a stoichiometry N in assay [2] of 2.
